T1: human OSMR expressed on cells (human, UniProt Q99650 28-979)
T1 sequence: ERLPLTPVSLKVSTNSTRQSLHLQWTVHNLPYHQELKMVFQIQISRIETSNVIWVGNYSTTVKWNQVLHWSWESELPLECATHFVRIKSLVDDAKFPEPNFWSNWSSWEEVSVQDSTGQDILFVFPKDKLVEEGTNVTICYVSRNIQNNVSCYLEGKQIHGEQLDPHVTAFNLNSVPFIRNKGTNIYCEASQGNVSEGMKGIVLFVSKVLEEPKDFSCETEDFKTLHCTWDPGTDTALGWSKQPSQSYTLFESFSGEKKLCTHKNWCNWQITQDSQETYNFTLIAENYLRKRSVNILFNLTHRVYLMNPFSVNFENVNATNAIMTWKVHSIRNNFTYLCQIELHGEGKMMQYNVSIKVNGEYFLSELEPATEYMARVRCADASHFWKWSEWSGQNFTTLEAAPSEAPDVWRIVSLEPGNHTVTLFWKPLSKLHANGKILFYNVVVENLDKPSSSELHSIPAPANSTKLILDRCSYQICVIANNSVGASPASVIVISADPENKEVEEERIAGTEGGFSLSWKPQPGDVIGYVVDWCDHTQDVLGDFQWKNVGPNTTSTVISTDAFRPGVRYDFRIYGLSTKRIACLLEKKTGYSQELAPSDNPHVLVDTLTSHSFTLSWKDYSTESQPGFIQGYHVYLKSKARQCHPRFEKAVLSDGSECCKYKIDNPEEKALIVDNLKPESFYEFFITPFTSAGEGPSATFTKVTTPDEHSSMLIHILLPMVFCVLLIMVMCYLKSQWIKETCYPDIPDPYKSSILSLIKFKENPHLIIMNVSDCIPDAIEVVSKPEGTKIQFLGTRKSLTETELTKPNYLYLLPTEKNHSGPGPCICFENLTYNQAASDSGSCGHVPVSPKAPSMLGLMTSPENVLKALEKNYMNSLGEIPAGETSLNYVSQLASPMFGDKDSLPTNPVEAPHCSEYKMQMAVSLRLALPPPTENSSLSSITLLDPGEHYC

T2: cynomologus OSMR expressed on cells (cynomologus monkey (Macaca fascicularis), UniProt Q99650 28-978 (human entry))
T2 chain: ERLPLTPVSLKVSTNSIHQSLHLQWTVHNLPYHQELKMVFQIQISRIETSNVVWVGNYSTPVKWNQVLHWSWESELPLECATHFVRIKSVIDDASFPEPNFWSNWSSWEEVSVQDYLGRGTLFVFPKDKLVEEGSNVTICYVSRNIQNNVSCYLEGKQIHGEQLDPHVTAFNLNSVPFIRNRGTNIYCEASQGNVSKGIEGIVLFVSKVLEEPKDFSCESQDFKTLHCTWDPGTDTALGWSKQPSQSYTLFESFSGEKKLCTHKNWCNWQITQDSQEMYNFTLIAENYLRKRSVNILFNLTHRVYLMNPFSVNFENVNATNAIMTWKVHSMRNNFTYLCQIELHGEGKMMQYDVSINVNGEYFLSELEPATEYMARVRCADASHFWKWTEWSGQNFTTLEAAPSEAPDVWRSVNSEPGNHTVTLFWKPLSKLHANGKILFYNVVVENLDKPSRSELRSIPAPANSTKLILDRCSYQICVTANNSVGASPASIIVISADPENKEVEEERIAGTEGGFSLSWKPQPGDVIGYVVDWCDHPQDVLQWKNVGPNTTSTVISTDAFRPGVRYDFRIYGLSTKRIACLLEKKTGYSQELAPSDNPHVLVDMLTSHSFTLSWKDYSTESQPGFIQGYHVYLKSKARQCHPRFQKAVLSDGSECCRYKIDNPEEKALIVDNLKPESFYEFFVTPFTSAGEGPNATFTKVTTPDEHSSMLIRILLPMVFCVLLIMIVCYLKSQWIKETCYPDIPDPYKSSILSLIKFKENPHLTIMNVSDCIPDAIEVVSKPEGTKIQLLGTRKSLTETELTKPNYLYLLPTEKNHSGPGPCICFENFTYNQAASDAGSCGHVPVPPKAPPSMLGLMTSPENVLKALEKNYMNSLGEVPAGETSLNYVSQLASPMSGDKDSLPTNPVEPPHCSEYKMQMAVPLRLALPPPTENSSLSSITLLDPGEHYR

T3: hOSMR.FH (human, UniProt Q99650 28-740)
T3 construct: also called huOSMR
T3 sequence: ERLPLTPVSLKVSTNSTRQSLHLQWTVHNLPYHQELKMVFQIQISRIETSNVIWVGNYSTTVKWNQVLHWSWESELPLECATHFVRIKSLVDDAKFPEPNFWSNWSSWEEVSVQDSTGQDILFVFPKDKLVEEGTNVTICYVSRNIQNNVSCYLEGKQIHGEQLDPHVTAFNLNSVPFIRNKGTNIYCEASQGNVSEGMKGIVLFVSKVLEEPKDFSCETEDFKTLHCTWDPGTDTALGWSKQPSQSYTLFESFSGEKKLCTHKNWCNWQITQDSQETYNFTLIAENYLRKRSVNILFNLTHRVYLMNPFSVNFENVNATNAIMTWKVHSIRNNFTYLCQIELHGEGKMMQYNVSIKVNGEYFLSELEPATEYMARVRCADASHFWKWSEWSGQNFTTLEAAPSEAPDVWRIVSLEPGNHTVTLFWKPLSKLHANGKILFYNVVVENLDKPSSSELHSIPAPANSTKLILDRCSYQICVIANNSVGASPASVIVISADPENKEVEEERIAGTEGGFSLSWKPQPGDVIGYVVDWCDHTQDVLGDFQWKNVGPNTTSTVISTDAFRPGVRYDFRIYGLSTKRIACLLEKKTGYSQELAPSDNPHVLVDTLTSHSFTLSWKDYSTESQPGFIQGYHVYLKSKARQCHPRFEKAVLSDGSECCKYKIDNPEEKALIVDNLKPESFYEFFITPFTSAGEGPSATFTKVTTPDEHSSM

T4: OSMR (UniProt Q99650 28-740)
T4 sequence (looked up): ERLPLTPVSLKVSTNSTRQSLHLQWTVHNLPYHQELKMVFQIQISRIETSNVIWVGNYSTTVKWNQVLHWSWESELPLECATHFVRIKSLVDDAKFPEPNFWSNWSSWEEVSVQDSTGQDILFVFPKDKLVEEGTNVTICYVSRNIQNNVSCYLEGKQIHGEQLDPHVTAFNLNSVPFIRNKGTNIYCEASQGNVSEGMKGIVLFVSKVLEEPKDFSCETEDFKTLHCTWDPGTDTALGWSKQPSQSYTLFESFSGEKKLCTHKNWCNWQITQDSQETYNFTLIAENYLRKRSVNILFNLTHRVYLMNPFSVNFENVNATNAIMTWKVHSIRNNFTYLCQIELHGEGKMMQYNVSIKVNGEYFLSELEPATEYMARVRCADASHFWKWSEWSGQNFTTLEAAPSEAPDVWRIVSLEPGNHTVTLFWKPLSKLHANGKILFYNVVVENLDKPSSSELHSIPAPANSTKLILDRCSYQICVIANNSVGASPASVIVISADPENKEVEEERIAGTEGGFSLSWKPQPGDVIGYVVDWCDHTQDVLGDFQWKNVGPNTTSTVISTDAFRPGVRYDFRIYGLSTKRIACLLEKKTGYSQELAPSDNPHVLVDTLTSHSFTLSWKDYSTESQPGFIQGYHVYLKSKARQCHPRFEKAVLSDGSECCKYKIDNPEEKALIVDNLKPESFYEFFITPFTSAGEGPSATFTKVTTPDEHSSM

T5: Soluble OSMR (UniProt Q99650 28-740)
T5 sequence (looked up): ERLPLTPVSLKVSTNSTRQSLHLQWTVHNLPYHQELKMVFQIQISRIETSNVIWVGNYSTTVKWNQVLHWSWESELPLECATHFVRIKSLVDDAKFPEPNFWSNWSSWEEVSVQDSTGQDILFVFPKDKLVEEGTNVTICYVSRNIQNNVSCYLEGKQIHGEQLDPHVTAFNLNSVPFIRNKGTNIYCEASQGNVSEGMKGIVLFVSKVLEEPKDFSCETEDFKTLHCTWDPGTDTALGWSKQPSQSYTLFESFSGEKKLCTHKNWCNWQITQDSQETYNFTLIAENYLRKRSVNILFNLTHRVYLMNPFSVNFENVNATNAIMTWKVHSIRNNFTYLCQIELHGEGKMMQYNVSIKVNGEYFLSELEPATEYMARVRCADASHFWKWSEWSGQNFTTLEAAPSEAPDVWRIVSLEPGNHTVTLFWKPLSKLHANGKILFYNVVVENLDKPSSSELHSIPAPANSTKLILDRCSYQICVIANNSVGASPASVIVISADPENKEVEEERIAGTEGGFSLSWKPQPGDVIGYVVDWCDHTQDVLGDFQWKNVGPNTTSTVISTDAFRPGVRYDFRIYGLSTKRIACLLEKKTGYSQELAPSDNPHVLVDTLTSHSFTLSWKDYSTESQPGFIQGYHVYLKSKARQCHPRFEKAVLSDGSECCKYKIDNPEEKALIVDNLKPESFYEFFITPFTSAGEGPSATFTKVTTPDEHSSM


How the values were obtained:
[1] = target: T1, human OSMR expressed on cells; test: cell-based or functional assay
[2] = target: T2, cynomologus OSMR expressed on cells; test: cell-based or functional assay
[3] = target: T3, hOSMR.FH; test: SPR, Biacore 3000, antibody captured by anti-human IgG, hOSMR.FH analyte, 25 C
Procedure: Biosensor analysis was conducted at 25 C in a HBS-EP+(1×) buffer system (10 mM HEPES pH 7.4, 150 mM NaCl, 3.0 mM EDTA, 0.05% Surfactant P20) using a Biacore 3000 optical biosensor equipped with a CM5 sensor chip. All reagents were kept at 8° C. prior to injection. […] Antibodies 1-3 were diluted (0.25 to 0.5 μg/mL) in running buffer. The antibodies were injected (15 μL) over Flow Cell 2 at a flow rate of 10 μL/min. About 50 RU of antibody was captured. […] Samples were run in duplicate and in random order.
Buffer analyte blanks (0 nM hOSMR) were injected before, in-between, and after sample injections. Antibodies were injected (15 μL) over Flow Cell 2 at a flow rate of 10 μL/min. About 50 RU of antibody was captured. […] The samples were run in triplicate.
Data was analyzed with Scrubber 2.0 software as follows. Data from Flow Cell 2 was subtracted from the data from Flow Cell I (blank reference). The reference subtracted data (2-1) was then subtracted (double referenced) from the nearest 0 nM concentration data. The double referenced long dissociation data was fit to a 1:1 binding model to determine the dissociation rate constant (kd). This dissociation rate constant was used as a fixed parameter to fit the double referenced short dissociation data to a 1:1 binding model in order to determine the association rate constant (ka) and the equilibrium dissociation constant (Kd).

[4] = target: T4, OSMR; test: Direct ELISA (solid state avidity format)
[5] = target: T4, OSMR; test: Sandwich ELISA (solution phase format)
[6] = target: T5, Soluble OSMR; test: BIAcore, antibody immobilized on CM4 chip, soluble OSMR analyte
Procedure: Binding studies were performed using the BIAcore method. Antibodies containing the variable regions of Ab1 or Ab2 (or the N73D variant of Ab1 or Ab2) with different Fe regions were immobilized on a CM4 chip (GE lifesciences) as per manufacturer's protocols. Soluble OSMR was used as the analyte.

[7] = target: T4, OSMR; test: Capture ELISA (avidity-less format)

Row | Binder | IC50, IL-31-induced proliferation of BaF3 cells expressing human IL-31RA4 and OSMR [1] | IC50, OSM-induced STAT3 nuclear translocation in primary normal human lung fibroblasts [1] | IC50, cyno IL-31-induced proliferation of BaF3 cells overexpressing cyno IL-31RA and OSMR [2] | IC50, cyno OSM-induced STAT3 nuclear translocation in a primary kidney epithelial cell line [2] | Kd [3] | koff [3] | kon [3] | EC50 [4] | EC50 [5] | Kd [6] | koff [6] | kon [6] | EC50 [7]
1 | Ab3 (antibody, human IgG2, kappa, V domains shown, also called antibody 3) VH: QVHLVQSGAEVKKPGASVKVSCKASGYTFTSYGISWVRQAPGQGLEWMGWLSTYSGNTNYAQKLQGRVTMTTDTSTSTAYMELRSLRSDDTAVYYCARGNFYYYGMDVWGQGTTVTVSS VL: not shown | 0.78 nM | 1.35 nM | 6.87 nM | 1.24 nM | 1.08 nM | 0.000102 s⁻¹ | 94700 M⁻¹ s⁻¹ |  |  |  |  |  | 
2 | Ab1 (antibody, human IgG2, lambda, V domains shown, also called Ab1 IgG2 WT; antibody 1) VH: QVQLVQSGAEVKKPGASVKVSCKASGYTFTSYDINWVRQATGQGLEWMGWMNPNSGNTDYAQKFQGRVTMTRNISISTAYIELSSLRSEDTAVYYCARDMVAANTDYYFYYGMDVWGQGTTVTVSS VL: not shown | 0.0352 nM | 0.157 nM | 0.225 nM | 1.26 nM | 0.221 nM | 9.95e-05 s⁻¹ | 447000 M⁻¹ s⁻¹ | 0.184 nM | 0.581 nM | 0.913 nM | 0.00015 s⁻¹ | 164000 M⁻¹ s⁻¹ | 10.2 nM
3 | Ab2 (antibody, human IgG2, lambda, V domains shown, also called Ab2 IgG2 WT; antibody 2) VH: QVQLVQSGAEVKKPGASVKVSCKASGYTFTSYEINWVRQATGQGLEWMGWMNPNSGYTGYAQKFQGRVTMTRNTSISTAYMEMSSLRSEDTAVYYCARDIVAANTDYYFYYGMDVWGQGTTVTVSS VL: QSVLTQPPSASGTPGQRVTISCSGSNSNIGSNTVNWYHQLPGTAPKLLIYNINKRPSGVPDRFSGSKSGSSASLAISGLQSEDEADYYCSTWDDSLDGVVFGGGTKLTVLG | 0.0276 nM | 0.252 nM | 0.0293 nM | 0.518 nM | 0.0327 nM | 1.81e-05 s⁻¹ | 550000 M⁻¹ s⁻¹ | 0.182 nM | 0.366 nM | 1.01 nM | 0.000189 s⁻¹ | 188000 M⁻¹ s⁻¹ | 3.63 nM
4 | Ab2 N73D IgG4P agly/IgG1 (antibody, V domains shown) VH: QVQLVQSGAEVKKPGASVKVSCKASGYTFTSYEINWVRQATGQGLEWMGWMNPNSGYTGYAQKFQGRVTMTRDTSISTAYMEMSSLRSEDTAVYYCARDIVAANTDYYFYYGMDVWGQGTTVTVSS VL: QSVLTQPPSASGTPGQRVTISCSGSNSNIGSNTVNWYHQLPGTAPKLLIYNINKRPSGVPDRFSGSKSGSSASLAISGLQSEDEADYYCSTWDDSLDGVVFGGGTKLTVLG |  |  |  |  |  |  |  | 0.0558 nM | 0.064 nM |  |  |  | 1.61 nM
5 | Ab1 N73D IgG4P agly/IgG1 (antibody, V domains shown) VH: QVQLVQSGAEVKKPGASVKVSCKASGYTFTSYDINWVRQATGQGLEWMGWMNPNSGNTDYAQKFQGRVTMTRDISISTAYIELSSLRSEDTAVYYCARDMVAANTDYYFYYGMDVWGQGTTVTVSS VL: not shown |  |  |  |  |  |  |  | 0.0626 nM | 0.05 nM |  |  |  | 2.86 nM
6 | Ab1 N73D IgG2 (antibody, V domains shown, also called Ab1 version 2) VH: QVQLVQSGAEVKKPGASVKVSCKASGYTFTSYDINWVRQATGQGLEWMGWMNPNSGNTDYAQKFQGRVTMTRDISISTAYIELSSLRSEDTAVYYCARDMVAANTDYYFYYGMDVWGQGTTVTVSS VL: not shown |  |  |  |  |  |  |  | 0.0728 nM | 0.359 nM | 0.675 nM | 0.000168 s⁻¹ | 249000 M⁻¹ s⁻¹ | 4.85 nM
7 | Ab2 N73D IgG2 (antibody, V domains shown, also called Ab2 version 2) VH: QVQLVQSGAEVKKPGASVKVSCKASGYTFTSYEINWVRQATGQGLEWMGWMNPNSGYTGYAQKFQGRVTMTRDTSISTAYMEMSSLRSEDTAVYYCARDIVAANTDYYFYYGMDVWGQGTTVTVSS VL: QSVLTQPPSASGTPGQRVTISCSGSNSNIGSNTVNWYHQLPGTAPKLLIYNINKRPSGVPDRFSGSKSGSSASLAISGLQSEDEADYYCSTWDDSLDGVVFGGGTKLTVLG |  |  |  |  |  |  |  | 0.179 nM | 0.343 nM | 0.289 nM | 4.99e-05 s⁻¹ | 173000 M⁻¹ s⁻¹ | 5.49 nM

— US20160137739A1 (KINIKSA PHARMACEUTICALS, published 2016)
